The results in this text go back to article PMC4499152.

Series [1] addresses T1, RPA complex (UniProt P27694;P15927;P35244 1-616;1-270;1-121). The series is described as follows: pull-down.
Series [2] has as its target T1, RPA complex. The series can be described thus: pull-down. This is another data set of the same source.

Read-outs that look alike come from different tables or passages of the source.

T1 sequence (P27694 whole entry, chain 1 of 3): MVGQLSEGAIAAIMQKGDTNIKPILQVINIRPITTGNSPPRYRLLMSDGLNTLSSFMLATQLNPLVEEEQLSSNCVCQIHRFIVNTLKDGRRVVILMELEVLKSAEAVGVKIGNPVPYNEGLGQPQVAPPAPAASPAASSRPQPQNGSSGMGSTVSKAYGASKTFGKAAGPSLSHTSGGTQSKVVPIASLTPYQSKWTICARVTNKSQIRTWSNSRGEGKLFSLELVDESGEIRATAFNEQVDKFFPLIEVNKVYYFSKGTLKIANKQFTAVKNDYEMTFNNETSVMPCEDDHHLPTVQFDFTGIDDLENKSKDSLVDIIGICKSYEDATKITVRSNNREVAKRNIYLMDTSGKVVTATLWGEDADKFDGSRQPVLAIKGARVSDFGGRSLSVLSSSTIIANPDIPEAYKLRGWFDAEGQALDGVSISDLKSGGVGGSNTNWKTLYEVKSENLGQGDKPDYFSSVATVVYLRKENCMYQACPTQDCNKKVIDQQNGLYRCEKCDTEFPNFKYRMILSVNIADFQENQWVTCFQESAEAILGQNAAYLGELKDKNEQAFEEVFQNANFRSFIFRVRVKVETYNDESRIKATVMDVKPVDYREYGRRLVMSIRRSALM
T1 sequence (P15927 whole entry, chain 2 of 3): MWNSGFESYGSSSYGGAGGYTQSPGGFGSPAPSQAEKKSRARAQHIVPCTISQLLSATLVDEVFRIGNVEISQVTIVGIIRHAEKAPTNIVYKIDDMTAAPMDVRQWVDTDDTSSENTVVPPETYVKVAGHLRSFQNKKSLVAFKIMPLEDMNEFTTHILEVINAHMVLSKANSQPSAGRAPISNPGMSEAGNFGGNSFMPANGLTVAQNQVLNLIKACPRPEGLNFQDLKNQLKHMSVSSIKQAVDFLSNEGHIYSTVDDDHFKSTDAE
T1 sequence (P35244 whole entry, chain 3 of 3): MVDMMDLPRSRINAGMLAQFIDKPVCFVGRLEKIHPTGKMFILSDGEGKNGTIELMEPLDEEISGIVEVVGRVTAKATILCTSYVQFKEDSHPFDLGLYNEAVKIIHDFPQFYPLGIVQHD

B1: ssTEL (ssDNA)
DNA: TTAGGGTTAGGGTTAGGGTTAGGGTTAGGGTTAGGGTTAGGGTTAGGG
On to B1, for which, in series [1], the binding result was “binds”.

B2: ssMUT (ssDNA)
DNA: TTTGCGTTTGCGTTTGCGTTTGCGTTTGCGTTTGCGTTTGCGTTTGCG
As for B2, in series [2], the binding result is “binds”.
